Legend:
gp140Con-s (HIV-1) = assay: ELISA (OD 450 nm) on Cons gp140 (gp140Con-s), sCD4Fc titrated [A]
[1] = target: HIV-1 Env of isolate CNE58 (HIV-1); assay: cell-based or functional assay
[2] = target: HIV-1 Env of isolate CNE1 (HIV-1); assay: cell-based or functional assay
[3] = target: HIV-1 Env of isolate CH110 (HIV-1); assay: cell-based or functional assay
[4] = target: HIV-1 Env of isolate CH114 (HIV-1); assay: cell-based or functional assay
[5] = target: HIV-1 Env of isolate KNH1088.EC5 (HIV-1); assay: cell-based or functional assay
[6] = target: HIV-1 Env of isolate CNE49 (HIV-1); assay: cell-based or functional assay
[7] = target: HIV-1 Env of isolate CNE55 (HIV-1); assay: cell-based or functional assay
[8] = target: HIV-1 Env of isolate CH120 (HIV-1); assay: cell-based or functional assay
[9] = target: HIV-1 Env of isolate CNE4 (HIV-1); assay: cell-based or functional assay
[10] = target: HIV-1 Env of isolate CNE64 (HIV-1); assay: cell-based or functional assay
[11] = target: HIV-1 Env of isolate CNE14 (HIV-1); assay: cell-based or functional assay

Q: “D1D2Fc (from UniProt P01730 26-203) (Fc fusion)” was tested. Which EC50 (read off the curve) (gp140Con-s (HIV-1)) did it give?
A: Its EC50 (read off the curve) is 1 nM.

Q: What about the neutralization IC50 [1] of the same substance?
A: Its neutralization IC50 is > 250 nM.

Q: What about the neutralization IC90 [1] of the same substance?
A: The neutralization IC90 was > 250 nM.

Q: And the neutralization IC50 [2]?
A: Its neutralization IC50 is 197 nM.

Q: And the neutralization IC90 [2]?
A: The neutralization IC90 was > 250 nM.

Q: And the neutralization IC50 [3]?
A: The neutralization IC50 was 28 nM.

Q: What about the neutralization IC90 [3] of the same substance?
A: Its neutralization IC90 is > 250 nM.

Q: And the neutralization IC50 [4]?
A: Its neutralization IC50 is 23 nM.

Q: What about the neutralization IC90 [4] of the same substance?
A: The neutralization IC90 was 198 nM.

Q: What about the IC50, neutralization in TZM-bl cell-based assay [5] of the same substance?
A: Its IC50, neutralization in TZM-bl cell-based assay is > 250 nM.

Q: What about the IC90, neutralization in TZM-bl cell-based assay [5] of the same substance?
A: Its IC90, neutralization in TZM-bl cell-based assay is > 250 nM.

Q: And the neutralization IC50 [6]?
A: The neutralization IC50 was 21 nM.

Q: What about the neutralization IC90 [6] of the same substance?
A: Its neutralization IC90 is 224 nM.

Q: What about the neutralization IC50 [7] of the same substance?
A: The neutralization IC50 was 213 nM.

Q: And the neutralization IC90 [7]?
A: The neutralization IC90 was > 250 nM.

Q: And the neutralization IC50 [8]?
A: Its neutralization IC50 is 104 nM.

Q: And the neutralization IC90 [8]?
A: The neutralization IC90 was > 250 nM.

Q: And the neutralization IC50 [9]?
A: Its neutralization IC50 is 3.9 nM.

Q: What about the neutralization IC90 [9] of the same substance?
A: Its neutralization IC90 is 24 nM.

Q: And the neutralization IC50 [10]?
A: The neutralization IC50 was 12 nM.

Q: What about the neutralization IC90 [10] of the same substance?
A: Its neutralization IC90 is 113 nM.

Q: And the neutralization IC50 [11]?
A: The neutralization IC50 was 105 nM.

Q: What about the neutralization IC90 [11] of the same substance?
A: Its neutralization IC90 is 248 nM.
